Assay [1] has as its target T1, HCV NS3/4A PR (S139A):simeprevir complex (Hepatitis C virus subtype 1a). As to the kind of experiment: HTRF, with simeprevir. Background: TR-FRET usually uses a lanthanide donor and a delayed reading to cut background.
Assay [2] deals with T1, HCV NS3/4A PR (S139A):simeprevir complex. As to the kind of experiment: phage ELISA. On the technique in general: An ELISA detects its analyte on a solid surface through an enzyme-linked reagent.
Assay [3] has the same target. As to the kind of experiment: SPR Biacore 8K, PRSIM immobilised, protease flowed with 10 nM simeprevir. (Surface plasmon resonance follows binding to a sensor surface in real time, without labels.)
In assay [4] the target is T2, BSA, in the presence of simeprevir (UniProt P02769 25-607).
T2 construct: also called BSA control
T2 sequence (P02769 25-607 limits assumed): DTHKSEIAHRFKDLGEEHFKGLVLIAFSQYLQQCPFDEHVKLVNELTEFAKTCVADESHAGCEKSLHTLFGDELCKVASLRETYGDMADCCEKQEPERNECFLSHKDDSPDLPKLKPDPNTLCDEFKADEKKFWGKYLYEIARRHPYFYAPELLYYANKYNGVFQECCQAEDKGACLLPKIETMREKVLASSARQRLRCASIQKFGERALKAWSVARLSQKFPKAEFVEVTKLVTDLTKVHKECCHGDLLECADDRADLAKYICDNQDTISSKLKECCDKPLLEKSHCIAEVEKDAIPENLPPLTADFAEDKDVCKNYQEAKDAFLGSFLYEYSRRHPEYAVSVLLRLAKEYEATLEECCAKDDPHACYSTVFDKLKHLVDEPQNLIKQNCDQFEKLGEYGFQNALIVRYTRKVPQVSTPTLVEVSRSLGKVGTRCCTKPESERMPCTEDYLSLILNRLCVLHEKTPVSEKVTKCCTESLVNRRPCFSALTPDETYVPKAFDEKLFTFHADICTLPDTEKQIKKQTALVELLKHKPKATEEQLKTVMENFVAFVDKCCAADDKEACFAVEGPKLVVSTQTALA
Description: SPR Biacore 8K, PRSIM immobilised, BSA + 10 nM simeprevir.

Assay [5] has as its target T3, HCV NS3/4A PR K136D (S139A background), in the presence of simeprevir (Hepatitis C virus subtype 1a).
T3 chain: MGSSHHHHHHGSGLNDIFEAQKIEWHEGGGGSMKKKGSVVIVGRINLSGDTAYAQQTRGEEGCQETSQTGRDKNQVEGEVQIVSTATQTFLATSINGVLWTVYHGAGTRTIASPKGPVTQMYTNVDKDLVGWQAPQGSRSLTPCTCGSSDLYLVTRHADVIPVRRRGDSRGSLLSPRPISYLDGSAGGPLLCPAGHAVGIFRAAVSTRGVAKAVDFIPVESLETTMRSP

The target of assay [6] is T4, HCV NS3/4A PR D168E (S139A background), in the presence of simeprevir (Hepatitis C virus subtype 1a).
T4 chain: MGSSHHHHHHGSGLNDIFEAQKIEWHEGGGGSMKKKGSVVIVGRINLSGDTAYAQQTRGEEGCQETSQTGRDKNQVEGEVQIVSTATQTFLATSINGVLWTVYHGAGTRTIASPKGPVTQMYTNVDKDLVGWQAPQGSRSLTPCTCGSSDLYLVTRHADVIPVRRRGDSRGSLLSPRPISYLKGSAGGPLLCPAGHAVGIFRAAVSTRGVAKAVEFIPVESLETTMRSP

The target in assay [7] is T5, HCV NS3/4A PR K136N (S139A background), in the presence of simeprevir (Hepatitis C virus subtype 1a).
T5 chain: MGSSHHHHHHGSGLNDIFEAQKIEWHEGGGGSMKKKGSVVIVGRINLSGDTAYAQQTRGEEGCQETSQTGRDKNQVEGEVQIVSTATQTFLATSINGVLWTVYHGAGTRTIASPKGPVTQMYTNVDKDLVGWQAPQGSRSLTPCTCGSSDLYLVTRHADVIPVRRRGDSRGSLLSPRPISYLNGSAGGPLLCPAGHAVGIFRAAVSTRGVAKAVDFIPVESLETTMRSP

For assay [8], the target named is T3, HCV NS3/4A PR K136D (S139A background), ….
The target of assay [9] is T4, HCV NS3/4A PR D168E (S139A background), ….
The target of assay [10] is T5, HCV NS3/4A PR K136N (S139A background), ….
For assay [11], the target named is T3, HCV NS3/4A PR K136D (S139A background), …. Description: SPR Biacore 8K, with simeprevir.
Assay [12] has as its target T4, HCV NS3/4A PR D168E (S139A background), …. As to the kind of experiment: SPR Biacore 8K, with simeprevir.
The target in assay [13] is T5, HCV NS3/4A PR K136N (S139A background), …. Description: SPR Biacore 8K, with simeprevir.
Assay [14] has as its target T3, HCV NS3/4A PR K136D (S139A background), …. Description: SPR Biacore 8K, simeprevir titrated.

A word on the Kd: it is the constant that tells how readily two partners part at equilibrium. The term koff denotes the rate constant with which the complex falls apart. A low value points to a long-lived complex. Broadly, the kon is the rate constant with which the complex forms.

B1: PRSIM_47 (designed binder)
chain: RLDAPSQIEVKDVTDTTALITWSRPGVSIWYFELTYGIKDVPGDRTTIKLDYRSYYYSIGNLKPDTEYEVSLISGSYGLVGVRASNPAKITFKTGL
As for B1, the “HTRF max. signal (% delta F)” value in assay [1] is 1370 % delta F. For the same molecule, in [2], the “Binding fold change [(HCV protease + Simeprevir binding)/HCV protease alone]” value (“Binding fold change” below) came out at 25.3 fold. The same molecule gave a Kd in assay [3] of 3.9 nM. Further, in [4], the binding result is “no binding (tested: 20 nM)”.

B2: PRSIM_04 (scFv)
scFv: QVQLVQSGAEVKKPGSSVKVSCKASGGTFSSYAISWVRQAPGQGLEWMGGIIPIFGTANYAQKFQGRVTITADESTSTAYMELSSLRSEDTAVYYCARGMAHFYQFDLWGQGTLVTVSSGGGGSGGGGSGGGGSAQSVLTQPPSASGTPGQRVTISCSGSSSNIGSNTVNWYQQLPGTAPKLLIYSNNQRPSGVPDRFSGSKSGTSASLAISGLQSEDEADYYCAAGDHDHEHVVFGGGTKLTVL
notes: also called PRSIM_4
On to B2, for which the binding result in [4] is on record as “no binding (tested: 20 nM)”.

B3: PRSIM_57 (scFv)
scFv: QVQLVQSGAEVKKPGSSVKVSCKASGGTFSSYAISWVRQAPGQGLEWMGGIIPIFGTANYAQKFQGRVTITADESTSTAYMELSSLRSEDTAVYYCARHTNYITVFDYWGQGTLVTVSSGGGGSGGGGSGGGGSAQSVLTQPPSASGTPGQRVTISCSGSSSNIGSNTVNWYQQLPGTAPKLLIYSNNQRPSGVPDRFSGSKSGTSASLAISGLQSEDEADYYCAAWDHHWEQVVFGGGTKLTVL
Take B3: the binding result in [4] is reported as “no binding (tested: 20 nM)”.

B4: PRSIM_67 (scFv)
scFv: EVQLVQSGAEVKKPGAAVRISCKTSGYVFTSYYVHWVRQAPGQGLEWMGVINPSGGNTNYAQKFQDRVTMTRDTSTTTVYMELSSLMFDDTAVYYCAKRDYGGPLANWGRGTLVTVSSGGGGSGGGGSGGGGSALSYELTQPPSVSEAPRQRVTISCSGSSSNIGNNAVNWYQQLPGKAPKLLIFYDDLLPSGVSDRFSGSKSGTSASLAISGLQSEDEADYYCAAWDDSLNGLVFGTGTKLTVL
For B4, the binding result in assay [4] is recorded as “no binding (tested: 20 nM)”.

B5: PRSIM_36 (designed binder)
chain: RLDAPSQIEVKDVTDTTALITWSWPRDDDYDIWYFELTYGIKDVPGDRTTIKLLNYASPYSIGNLKPDTEYEVSLISVVPDTYGRGTSNPAKITFKTGL
For the molecule B5, the “HTRF max. signal (% delta F)” value in assay [1] came to 1440 % delta F. The “Binding fold change” value in [2] turned out to be 27.9 fold. In assay [3], this molecule had a Kd of 9.7 nM, a dissociation rate constant (koff) of 0.0498 s⁻¹ and an association rate constant (kon) of 5.15e+06 M⁻¹ s⁻¹. The binding result in [4] is recorded as “no binding (tested: 20 nM)”.

B6: PRSIM_72 (scFv)
scFv: QVQLVQSGAEVKKPGSSVKVSCKVSGGSFNNYGVSWVRQAPGQGLEWMGRIIPIRDTANYAQKFQGRVTITADTSTNIAYMELSGLRSDDTAVYYCARVLEDDFWGGYYDFYFYVMDVWGQGTLVTVSSGGGGSGGGGSGGGGSALSSELTQDPVVSVPLGQTARITCQGDSLTTYYATWYQQKPGQAPVLVLYNEHKRPSGISDRFSGSSAGDAASLTITDTQAEDEADYYCSSRDTGGKHVLFGGGTKLTVL
For the molecule B6, the binding result in assay [4] is “no binding (tested: 20 nM)”.

B7: PRSIM_33 (designed binder)
chain: RLDAPSQIEVKDVTDTTALITWYPPGRWYDDIWYFELTYGIKDVPGDRTTIKLARGDDVYSIGNLKPDTEYEVSLISWGPDRGDRAGSNPAKITFKTGL
As to B7, in [1], the “HTRF max. signal (% delta F)” value stood at 1700 % delta F. For the same molecule, the “Binding fold change” value in [2] turned out to be 29.9 fold. In addition, in assay [3], binding was put at a Kd of 8.3 nM, the off-rate constant (koff) amounted to 0.0303 s⁻¹ and the kon came to 3.65e+06 M⁻¹ s⁻¹. In addition, the binding result in assay [4] is “no binding (tested: 20 nM)”.

B8: PRSIM_23 (designed binder)
chain: RLDAPSQIEVKDVTDTTALITWVDPRYDDIWWFELTYGIKDVPGDRTTIKLYLNDPYYSIGNLKPDTEYEVSLISYTGDSYSRSGSNPAKITFKTGL
On to B8, for which the entries for the “Simeprevir EC50 for induction of heterodimerisation” value in [5], in [6] and in assay [7] were 132 nM, 3.69 nM and 8.06 nM, respectively. Further, the equilibrium dissociation constant (Kd) in assay [8] came to 33 nM; in assay [9], 14.7 nM; in [10] it was 39.5 nM. Also, the on-rate (kon) in assay [10] worked out at 5.31e+08 M⁻¹ s⁻¹. Also, the “fold decrease of affinity against 'Wt'” value in [11] and in assay [13] was 6 to 7 fold throughout. For the same molecule, in assay [12], the “fold decrease of affinity against 'wt' protease” value is approximately 3 fold. For the same molecule, the “fold increase of the simeprevir EC50 against the wt complex” value in assay [14] was approximately 30 fold.

B9: PRSIM_32 (designed binder)
chain: RLDAPSQIEVKDVTDTTALITWWSPRYYYASISGFELTYGIKDVPGDRTTIKLDYASNDYSIGNLKPDTEYEVSLISWNYGDWRYSSSNPAKITFKTGL
In the case of B9, the “HTRF max. signal (% delta F)” value in assay [1] is 1960 % delta F. Moreover, in [2], the “Binding fold change” value was 22.4 fold. Also, the Kd in assay [3] was found to be 16 nM. For the same molecule, the binding result in [4] was “no binding (tested: 20 nM)”.

B10: PRSIM_75 (scFv)
scFv: EVQLVQSGAEVKKPGSSVKVSCKASGGSFNSYTLDWVRQAPGQGLEWMGGIIPVFGSPNYGQKFQGRVTITADESTSTAYMELSSLKSDDTAVYYCARGLVYQPLDSWGRGTLVTVSSGGGGSGGGGSGGGGSAQAVLTQPSSASGTPGQRVTISCSGSSSNIGSYTVNWYQQFPGTAPKLLIYSNTQRPSGVPDRFSGSKSGTSASLAISGLQSEDEADYYCAAWDDSLNGWVFGGGTKVTVL
For B10, in assay [4], the binding result is “no binding (tested: 20 nM)”.

Values taken from patent US20220380801A1 (AstraZeneca / MedImmune, published 2022).
